# How the values were obtained:
# Assay in all cases: cell-based or functional assay
# [1] = biological target: human plasma-derived Factor IXa (human) (UniProt P00740)
# [2] = biological target: recombinant human Factor IXa K126A (human) (UniProt P00740)
# [3] = biological target: recombinant human Factor IXa K126A/K132A (human) (UniProt P00740)
# [4] = biological target: recombinant human Factor IXa K126A/K132A/R150A (human) (UniProt P00740)
# [5] = biological target: recombinant human Factor IXa K126A/R150A (human) (UniProt P00740)
# [6] = biological target: recombinant human Factor IXa K132A (human) (UniProt P00740)
# [7] = biological target: recombinant human Factor IXa K132A/R150A (human) (UniProt P00740)
# [8] = biological target: recombinant human Factor IXa R150A (human) (UniProt P00740)
# [9] = biological target: recombinant human Factor IXa wild-type (human) (UniProt P00740)
substance,measurement,setting,value
human plasma-derived antithrombin (from UniProt P01008 33-464),"k2, inhibition of FIXa by ATIII/Fond (460 nM fondaparinux)",[1],3520 M⁻¹ s⁻¹
same,"k2, inhibition of FIXa by ATIII/UFH (0.24 U/mL)",[1],3430 M⁻¹ s⁻¹
same,"k2, inhibition of FIXa by ATIII/Fond (460 nM fondaparinux)",[2],3300 M⁻¹ s⁻¹
same,"k2, inhibition of FIXa by ATIII/UFH (0.24 U/mL)",[2],1560 M⁻¹ s⁻¹
same,"k2, inhibition of FIXa by ATIII/Fond (460 nM fondaparinux)",[3],2640 M⁻¹ s⁻¹
same,"k2, inhibition of FIXa by ATIII/UFH (0.24 U/mL)",[3],423 M⁻¹ s⁻¹
same,"k2, inhibition of FIXa by ATIII/Fond (460 nM fondaparinux)",[4],68.3 M⁻¹ s⁻¹
same,"k2, inhibition of FIXa by ATIII/UFH (0.24 U/mL)",[4],6.67 M⁻¹ s⁻¹
same,"k2, inhibition of FIXa by ATIII/Fond (460 nM fondaparinux)",[5],63.3 M⁻¹ s⁻¹
same,"k2, inhibition of FIXa by ATIII/Fond (460 nM fondaparinux)",[6],3250 M⁻¹ s⁻¹
same,"k2, inhibition of FIXa by ATIII/UFH (0.24 U/mL)",[6],3740 M⁻¹ s⁻¹
same,"k2, inhibition of FIXa by ATIII/Fond (460 nM fondaparinux)",[7],68.3 M⁻¹ s⁻¹
same,"k2, inhibition of FIXa by ATIII/Fond (460 nM fondaparinux)",[8],71.7 M⁻¹ s⁻¹
same,"k2, inhibition of FIXa by ATIII/UFH (0.24 U/mL)",[8],262 M⁻¹ s⁻¹
same,"k2, inhibition of FIXa by ATIII, no heparin",[9],51.7 M⁻¹ s⁻¹
same,"k2, inhibition of FIXa by ATIII/Fond (460 nM fondaparinux)",[9],3290 M⁻¹ s⁻¹
same,"k2, inhibition of FIXa by ATIII/UFH (0.24 U/mL)",[9],4330 M⁻¹ s⁻¹

# From patent US20160122739A1
